± gives the standard deviation of the averaged measurements.
tested on: ATP; experiment: switch fluorescence ratio, 500 uM ATP over buffer (Cy3 cluster intensity, sum of 5 cycles each) (fold (ratio)); higher = stronger signal-on switching upon ATP binding; sequences stand for … in TCGTCGGCAGCGTCAGATGTGTATAAGAGACAGTTTTTTTTTTTTTTTTTTTTTTTTT…TC; details: aptamer strand: ATP DNA aptamer (quencher-CACCTGGGGGAGTATTGCGGAGGAAGG + anchor), 100 nM annealed; ATP concentration: 500 uM
In short: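 Clusters with intensities outside 100-1000 RFU were excluded. The remaining Cy3-labelled switching-strand clusters on a modified Illumina MiSeq flow-cell had been annealed to 100 nM quencher-labelled ATP aptamer and imaged in selection buffer, then after 15 min with 500 uM ATP at 22 °C, for five cycles separated by NaOH stripping and re-annealing. The fluorescence ratio, averaged per switch-domain sequence, is each cluster's summed target-cycle Cy3 intensity over its summed buffer-cycle Cy3 intensity.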
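Also: ATP exposure 15 min at 22 °C before imaging.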

Sequence | switch fluorescence ratio
ATTGGGAGAG | 1.02 ± 0.035
AGTCGGGTAC | 1.04 ± 0.033
TTTATAGGGT | 1 ± 0.032
TTTTGGCGC | 1.002 ± 0.0012
ATTTGAGGGT | 0.986 ± 0.021
GGCTAGCTAC | 1.09 ± 0.012
CGTGGTCATC | 0.9766 ± 0.0073
TCGGACGGGT | 1.02 ± 0.025
TTGCTCTCTT | 0.98 ± 0.083
GGGGTATTCT | 1.01 ± 0.013
GATGGATTCG | 1.01 ± 0.026
GGGTATCA | 0.954 ± 0.021
TAATTTGGA | 0.9652 ± 0.004
TACTACCTGG | 1.3 ± 0.25
TTGAGATCCA | 0.9929 ± 0.0085
ATCATTTGGC | 0.981 ± 0.068
TATGTGGGGA | 1.02 ± 0.027
GAAGAAGGGT | 0.99 ± 0.017
CTATGCTGGT | 1.01 ± 0.037
AGTTGGGTTT | 0.9964 ± 0.0071
TTTATTCTG | 0.9873 ± 0.0064
TTGGGTCATG | 1.036 ± 0.0048
TAAGGATGGG | 0.961 ± 0.032
GGGCAACTGG | 1.11 ± 0.15
TTAAAAATAA | 1.04 ± 0.073

Sequence | switch fluorescence ratio
CCTCTACTGG | 1.12 ± 0.042
AGGCGGATCG | 0.99 ± 0.085
ATTTTTTAGA | 0.989 ± 0.021
GTTGCTAGTA | 1 ± 0.011
TGGGTCTTGA | 1.001 ± 0.0062
ACTCGGCCC | 1.23 ± 0.015
AGTGGTGATC | 1.04 ± 0.018
CAAGAGGGGG | 0.978 ± 0.043
GCTTGGGGGG | 1.02 ± 0.029
TCGGTAGGGA | 0.96 ± 0.021
GGGGTCAGAT | 0.986 ± 0.051
CTGGACTGGT | 0.989 ± 0.012
TAGGGTGTGC | 1 ± 0.037
TTGAACACGG | 1.02 ± 0.034
GCAGTCTGCC | 1.02 ± 0.07
AAACGGCTCT | 0.967 ± 0.031
TGGGACGGTA | 1 ± 0.022
TATCGGGTGT | 1.11 ± 0.092
AGGGGAATTA | 1.026 ± 0.0047
CCTGTGAGGT | 1.01 ± 0.045
TTTTAGTAGG | 1.04 ± 0.091
GTTGGTAATT | 0.987 ± 0.015
AGTGATAGAT | 0.967 ± 0.023
AGCAGGAAGG | 0.9956 ± 0.0041
GGGTGCATCG | 1.004 ± 0.0046

Sequence | switch fluorescence ratio
TTTTGGAAAT | 1.02 ± 0.027
TGAGGGGGGC | 1.01 ± 0.044
GATTGGGGGG | 1 ± 0.029
GTCTAAGTGC | 0.996 ± 0.011
GTGTACCCGT | 0.96 ± 0.035
TGCCTCGGCG | 1.0022 ± 0.00021
GAACTAATAT | 1.01 ± 0.017
TGAACTTTTA | 0.965 ± 0.061
TTCTAAACGT | 1.06 ± 0.078
TAAGGGCAAG | 1.01 ± 0.013
TGCGTGGTGG | 1.03 ± 0.019
CGTACTTAGC | 1.069 ± 0.0034
TGGTGTGGTT | 1.02 ± 0.021
TTATGCAGGA | 0.955 ± 0.057
TGATGTGGCG | 0.994 ± 0.041
CGGGCCGGGT | 0.976 ± 0.031
GATTTAAAGC | 0.984 ± 0.034
GTTAGTTTGG | 1 ± 0.015
AGTTCGATGT | 1.01 ± 0.025
TCGAACTCTT | 1.03 ± 0.021
AAAAATGTTC | 0.9814 ± 4.7e-05
CCACTGGTGT | 3.92 ± 0.56
ATTTAGGGGA | 1.04 ± 0.056
TGGTGGCGG | 0.952 ± 0.037
AGGAACATAG | 1.15 ± 0.2

Sequence | switch fluorescence ratio
TAATCCCGGG | 1.3 ± 0.4
GATGCAATCT | 1.44 ± 0.08
GGGAACGAGG | 1.02 ± 0.019
CATATCGGAA | 1.187 ± 0.0077
CGAACTTGTT | 1.01 ± 0.04
AGTAAGGGTT | 1 ± 0.048
AGCGTACTCG | 1.11 ± 0.047
CAAGGGGGG | 0.977 ± 0.043
TGATAAGTAC | 1.38 ± 0.065
ATTCGATATG | 0.997 ± 0.011
CTGTGCAGTC | 1.26 ± 0.075
GTGGCGGTTT | 0.995 ± 0.044
TTCCATTTTG | 0.992 ± 0.032
TAAATGTATG | 1.01 ± 0.041
GTGCTAGCTC | 1.004 ± 0.0034
CTTGTATCGG | 1 ± 0.056
TAGTGCTTTT | 1.01 ± 0.025
CACCTAAAAT | 1.03 ± 0.037
GTTTACGGGG | 0.997 ± 0.041
TTATTTAGGT | 1.01 ± 0.043
TTCATGGGT | 1.017 ± 0.0054
TGGGATGCGT | 0.988 ± 0.015
TGGTATCTTA | 1.026 ± 0.0098
GATACTGATA | 1.032 ± 0.0098
GCTGGGTAAT | 1.02 ± 0.044

— the supplement of paper PMC10126150
